Source: the supplement of paper PMC12764529
± gives the half width of the 95% confidence interval.

Tests used:
[1] = folding stability dG unfold from trypsin proteolysis; higher = more stable
Method in brief: (§1)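 Unfolding free energy was derived, per protease or combined, by relating Bayesian-fitted K50 values from sequencing counts to a sequence-predicted unfolded-state K50 and a shared folded-state K50. The underlying digests exposed cysteine-free mini-proteins under 80 residues, in a PA-tagged cDNA display construct, to trypsin and chymotrypsin at 11 threefold-diluted concentrations and to a no-protease condition. A filter kept only designs with AlphaFold2 dimer inter-PAE above 15.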

[2] = folding stability dG unfold from chymotrypsin proteolysis; higher = more stable
Method in brief: as §1

[3] = folding stability dG unfold (combined trypsin and chymotrypsin); higher = more stable
Method in brief: as §1

## SAGGSAGGSKPKRRRVQIELPLPPGKPITPDHIREFMRPFGAPKVEITNIHPTNGRWIITFELSAGGSAGGS [r20_79_TrROS]
[1]
  folding stability dG unfold: 1.98 ± 0.031 kcal/mol
[2]
  folding stability dG unfold: 2.6 ± 0.11 kcal/mol
[3]
  folding stability dG unfold: 2.42 ± 0.14 kcal/mol

## SAGGGPAPVVVTVEYDPETREQRVTARAGGGGVVFELSLPLGDKTVTVKVIPVGDKVLLEVEWEVKGSAGGS [r16_631_TrMRF]
[1]
  folding stability dG unfold: 2.95 ± 0.16 kcal/mol
[2]
  folding stability dG unfold: 3.06 ± 0.13 kcal/mol
[3]
  folding stability dG unfold: 2.91 ± 0.15 kcal/mol

## SAGGSAGGSAGGDGEDGKPKPEPKIKIKIEVESVRNPNGFLIVTYRIPALGIWITIIINSAGGSAGGSAGGS [r10_160_TrROS]
[1]
  folding stability dG unfold: 3.03 ± 0.15 kcal/mol
[2]
  folding stability dG unfold: 4.91 ± 0.24 kcal/mol
[3]
  folding stability dG unfold: 4.6 ± 0.39 kcal/mol

## AKLPEGAKVVIEVRRADDGETRTITLDDDVTITITYDKDTGKVEVRAYVFDKNGKLVAEETLTLSLEELLSS [r1_380_TrROS_Hall]
[1]
  folding stability dG unfold: 1.77 ± 0.027 kcal/mol
[2]
  folding stability dG unfold: 3.508 ± 0.017 kcal/mol
[3]
  folding stability dG unfold: 3.1 ± 0.067 kcal/mol

## SAGGSAGGSAGNWRWIMIPIKVPPGLEAGEEIEIKIPNGVEVWYHYNEPGTIWMMIRVPDSAGGSAGGSAGG [r11_362_TrROS]
[1]
  folding stability dG unfold: 2.69 ± 0.069 kcal/mol
[2]
  folding stability dG unfold: 2.96 ± 0.037 kcal/mol
[3]
  folding stability dG unfold: 2.88 ± 0.085 kcal/mol

## AELEAEVVSVEEVNGETVVVVRVDGELVVRTFRPPPPRPLSLEELKRLAEELREQNPELAEEAEKLLEALAS [r1_330_TrROS_Hall]
[1]
  folding stability dG unfold: 2.49 ± 0.12 kcal/mol
[2]
  folding stability dG unfold: 2.19 ± 0.11 kcal/mol
[3]
  folding stability dG unfold: 2.33 ± 0.26 kcal/mol

## SAGGSAGGSAGWRAKVYPPGNGEPIGTIEIPKDWTPSQIKEIADDLQKKFPPGWRVEIEDSAGGSAGGSAGG [r11_1081_TrROS]
[1]
  folding stability dG unfold: 1.72 ± 0.051 kcal/mol
[2]
  folding stability dG unfold: 0.904 ± 0.093 kcal/mol
[3]
  folding stability dG unfold: 1.38 ± 0.12 kcal/mol

## SSPGKITTYEVTLTLPGPRPMTSTVDPSGVMTATVPDGTKITATIVPGPGTLTITTTFPDGTTSTSTISASA [r9_99_JUSTAS]
[1]
  folding stability dG unfold: 1.26 ± 0.061 kcal/mol
[2]
  folding stability dG unfold: 1.21 ± 0.058 kcal/mol
[3]
  folding stability dG unfold: 1.26 ± 0.074 kcal/mol

## SAGGSAGGSAGGVEELKKALEKAGFKVVKVEVTEVKNPETKETTTKITVTLEDGSKLTITSAGGSAGGSAGG [r7_337_TrROS_Hall]
[1]
  folding stability dG unfold: 3.95 ± 0.2 kcal/mol
[2]
  folding stability dG unfold: 3.63 ± 0.058 kcal/mol
[3]
  folding stability dG unfold: 3.72 ± 0.11 kcal/mol

## SAGGSMTFEIVEVTYDEETDEVTVRVRLPNGEVVTLSAEEIEKAIKEGKTITFTLENGEKLEIEVLSAGGSA [r2_301_TrROS_Hall]
[1]
  folding stability dG unfold: 1.49 ± 0.038 kcal/mol
[2]
  folding stability dG unfold: 2.58 ± 0.03 kcal/mol
[3]
  folding stability dG unfold: 2.27 ± 0.084 kcal/mol

## SAGQIVTTDPATGVTTVTIPFPDGSYATITITVEKLTPDKESIVSVDVDFKDKGKKVVPAAVLVEEILSSAG [r5_842_JUSTAS]
[1]
  folding stability dG unfold: 0.25 ± 0.084 kcal/mol
[2]
  folding stability dG unfold: 1.07 ± 0.11 kcal/mol
[3]
  folding stability dG unfold: 0.851 ± 0.17 kcal/mol

## SAGKIKIPPGQEIWIIVNVEWQPDPDNGEPRYTVTVMKIKIKADPNGGLKIESIETKIVPAEDLKDNGLSAG [r5_340_TrROS]
[1]
  folding stability dG unfold: 1.84 ± 0.036 kcal/mol
[2]
  folding stability dG unfold: 3.6 ± 0.078 kcal/mol
[3]
  folding stability dG unfold: 3.06 ± 0.14 kcal/mol

## SAGGSPEQARRWAKYIAETRAGENGWEVEDVEVEQHPGGYVEASIDVQFPDGKKREITITIPPGDPFSAGGS [r8_175_TrROS]
[1]
  folding stability dG unfold: -0.149 ± 0.54 kcal/mol
[2]
  folding stability dG unfold: -0.361 ± 0.81 kcal/mol
[3]
  folding stability dG unfold: -0.447 ± 0.55 kcal/mol

## SAGGSAGGSEKEVYVRNENGELYRFRAKAAPKLKLKLKLELERDENGNLSLRLELEVVSEEDLSAGGSAGGS [r12_1027_TrROS_Hall]
[1]
  folding stability dG unfold: 3.57 ± 0.14 kcal/mol
[2]
  folding stability dG unfold: 5.18 ± 0.15 kcal/mol
[3]
  folding stability dG unfold: 4.63 ± 0.4 kcal/mol

## SAGGSAGGSAGEEVILRIKVKLKNGEERTIEINMTLDELLAELPENVTEIKIEAIPKEDLSAGGSAGGSAGG [r11_596_TrROS_Hall]
[1]
  folding stability dG unfold: 1.29 ± 0.052 kcal/mol
[2]
  folding stability dG unfold: 1.54 ± 0.017 kcal/mol
[3]
  folding stability dG unfold: 1.46 ± 0.079 kcal/mol

## SAGGPEVVLTVTVKVPPEMTPEEVAQRLADELRKKYPDLKVEVVSVEYDEETKEVTVTIRVTYAPPPSAGGS [r8_26_TrROS_Hall]
[1]
  folding stability dG unfold: 4.97 ± 0.64 kcal/mol
[2]
  folding stability dG unfold: 4.05 ± 0.16 kcal/mol
[3]
  folding stability dG unfold: 4.45 ± 0.14 kcal/mol

## SAGGATITLEPGTFTIEFPENELVIPVPVPEERPDVSPEEAAREIVEELREKYGLPPPEDLTVELAPSAGGS [r8_402_JUSTAS]
[1]
  folding stability dG unfold: 0.299 ± 0.13 kcal/mol
[2]
  folding stability dG unfold: 0.184 ± 0.27 kcal/mol
[3]
  folding stability dG unfold: 0.273 ± 0.22 kcal/mol

## SAGGSAGGSAGYIWIPAKDFAKYIAEEHEEKGYQINIPVEVRPDNWVWIDIEIQPLKPGQSAGGSAGGSAGG [r11_214_TrROS]
[1]
  folding stability dG unfold: 0.644 ± 0.048 kcal/mol
[2]
  folding stability dG unfold: 1.3 ± 0.096 kcal/mol
[3]
  folding stability dG unfold: 1.04 ± 0.086 kcal/mol

## SAGGSAGGSAGGVTIVIGTDKDIPAEVIEKEVADELLKAGIPPDVKVNVVVVPIDPDALSAGGSAGGSAGGS [r10_746_TrMRF]
[1]
  folding stability dG unfold: 1.1 ± 0.042 kcal/mol
[2]
  folding stability dG unfold: 1.17 ± 0.087 kcal/mol
[3]
  folding stability dG unfold: 1.11 ± 0.1 kcal/mol

## SAPPRISIPWDPESGNWRVKVYNPKDPGKKREIDIPMKELQAKHGKPMSPNEIAQWLVKKGIDYVEIYPSAG [r14_809_TrROS]
[1]
  folding stability dG unfold: 0.183 ± 0.19 kcal/mol
[2]
  folding stability dG unfold: 0.559 ± 0.21 kcal/mol
[3]
  folding stability dG unfold: 0.409 ± 0.2 kcal/mol

## SAGGPLTEEQLKEQAKQIKDQLAKEFADMNGFPVTEIDDVEVVPDGWISIEIEYPGMGMPYTITIPWSAGGS [r16_622_TrROS]
[1]
  folding stability dG unfold: 0.887 ± 0.053 kcal/mol
[2]
  folding stability dG unfold: 1.02 ± 0.16 kcal/mol
[3]
  folding stability dG unfold: 1.02 ± 0.095 kcal/mol

## SAGMVKIEIEVKVEKDEDGRLRVTVRITIYDEKTGEKLKEIEIEVEAPSEEEAERAARKKAEELLKELSAGG [r19_255_TrROS_Hall]
[1]
  folding stability dG unfold: 3.9 ± 0.18 kcal/mol
[2]
  folding stability dG unfold: 2.58 ± 0.087 kcal/mol
[3]
  folding stability dG unfold: 3.25 ± 0.19 kcal/mol

## SAGGSAKSLTLTVEITLPDGSTVRIEAEIEEKDGYLVIKVTIYNEDGEKVAEFTLVLKLPPPPPEPSAGGSA [r15_263_TrROS_Hall]
[1]
  folding stability dG unfold: 2.84 ± 0.47 kcal/mol
[2]
  folding stability dG unfold: 4.42 ± 0.2 kcal/mol
[3]
  folding stability dG unfold: 3.76 ± 0.66 kcal/mol

## SAGGGEYKVEVVTFPDGSKVVLVTLPNGDKVALPVPVTRTVPVLDKTGPLKKPGPVEVAALVLVSSNGSAGG [r13_236_TrMRF]
[1]
  folding stability dG unfold: 0.636 ± 0.035 kcal/mol
[2]
  folding stability dG unfold: 1.17 ± 0.12 kcal/mol
[3]
  folding stability dG unfold: 0.956 ± 0.076 kcal/mol

## SAGGMKVEVEVDPETGELYLKIYFPETGEVALVKIDPKTKTAEVVGSTDFVKEALPELGINNPTLVPGSAGG [r13_511_TrMRF]
[1]
  folding stability dG unfold: 1.06 ± 0.051 kcal/mol
[2]
  folding stability dG unfold: 1.59 ± 0.088 kcal/mol
[3]
  folding stability dG unfold: 1.43 ± 0.061 kcal/mol

## SAGGSAGGSAGGGNPFLVRTEFFTLPDNTVIRRLAVVHSDGSLSVFPSLLPVPPNSLKLSAGGSAGGSAGGS [r10_280_TrMRF]
[1]
  folding stability dG unfold: 0.412 ± 0.041 kcal/mol
[2]
  folding stability dG unfold: 1.18 ± 0.087 kcal/mol
[3]
  folding stability dG unfold: 0.914 ± 0.053 kcal/mol

## SAGGSAGGSAGGEYEIVKIEKVKNENGELYYKMIIKDKKTNKEIEIYMSLEELKKLKPKSAGGSAGGSAGGS [r10_326_TrROS_Hall]
[1]
  folding stability dG unfold: 2.05 ± 0.047 kcal/mol
[2]
  folding stability dG unfold: 3.85 ± 0.16 kcal/mol
[3]
  folding stability dG unfold: 3.24 ± 0.18 kcal/mol

## SAGSTAELVGHPDGVELRTELRGEELVFVLPAPKDVLVVAYDPATGALVLGVPVGDRVLVLVRPPPHPSAGG [r19_384_TrMRF]
[1]
  folding stability dG unfold: 2.54 ± 0.079 kcal/mol
[2]
  folding stability dG unfold: 3.88 ± 0.099 kcal/mol
[3]
  folding stability dG unfold: 3.53 ± 0.23 kcal/mol

## SAGMKIEIEIVKVEVKEVNGKKVIKVEIKVKVSAEELGLSEEELKEKLEEEVEELARELAEKLNVEVVPSAG [r5_333_TrROS_Hall]
[1]
  folding stability dG unfold: 2.88 ± 0.36 kcal/mol
[2]
  folding stability dG unfold: 1.36 ± 0.1 kcal/mol
[3]
  folding stability dG unfold: 2.21 ± 0.51 kcal/mol

## SAGGSAGGSAGGMRVYEFDSEEEAQAFAEELRAAEPDVREVTIERDPETGKYRVTVVAESAGGSAGGSAGGS [r10_544_JUSTAS]
[1]
  folding stability dG unfold: 4.24 ± 0.17 kcal/mol
[2]
  folding stability dG unfold: 4.69 ± 0.091 kcal/mol
[3]
  folding stability dG unfold: 4.62 ± 0.14 kcal/mol

## SAGGSAGGSAGGSSITIEEEGGKLRITVTNENGEKSEFEFPPGAKITLPEGVKLELEKESAGGSAGGSAGGS [r4_447_TrROS_Hall]
[1]
  folding stability dG unfold: 0.549 ± 0.082 kcal/mol
[2]
  folding stability dG unfold: 1.13 ± 0.019 kcal/mol
[3]
  folding stability dG unfold: 0.84 ± 0.073 kcal/mol
